From patent US20230071371A1 (Scripps Research, published 2023)
Bridges are numbered along the chain shown (N, C = ends). Where no end group is shown, it is not given here. [ ]: non-standard residue; d: D form. NMeR = CN[C@@H](CCCNC(=N)N)C(=O)O; hArg = N=C(N)NCCCC[C@H](N)C(=O)O; β3hR = N=C(N)NCCC[C@H](N)CC(=O)O; Nle = CCCC[C@H](N)C(=O)O; L1 = not defined here; L3 = not defined here; L4 = not defined here; L5 = not defined here

T1: GPR10 (UniProt P49683 1-370, limits assumed)
T1 sequence (looked up): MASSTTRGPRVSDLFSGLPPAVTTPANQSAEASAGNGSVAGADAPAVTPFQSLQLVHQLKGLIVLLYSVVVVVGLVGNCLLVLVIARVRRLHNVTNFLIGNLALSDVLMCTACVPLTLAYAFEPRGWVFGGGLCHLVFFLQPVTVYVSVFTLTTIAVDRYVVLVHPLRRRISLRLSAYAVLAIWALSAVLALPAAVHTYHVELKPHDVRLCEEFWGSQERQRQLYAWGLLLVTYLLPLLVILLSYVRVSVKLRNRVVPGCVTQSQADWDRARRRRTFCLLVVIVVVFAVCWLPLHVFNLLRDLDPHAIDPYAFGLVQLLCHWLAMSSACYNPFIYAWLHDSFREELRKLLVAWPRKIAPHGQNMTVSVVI


Each binder was assayed against T1, GPR10 (assay: cell-based or functional assay).

GPR10 EC50 | Binder
18 nM | SRAHQHSMETRTPDINPCWYTGRGCRPVGRF-NH2 (linker 18-25 via L1; reading uncertain) [Conjugate 231]
> 1000 nM | SRAHQHSMETRTPDINPCWYTGRGCRPVGRF-NH2 (linker 18-25 via L5; reading uncertain) [Conjugate 250]
33 nM | SRAHQHSMETRTPDINPCWYTGRGCRPVGRF-NH2 (cysteine pairing not given here) [SEQ ID NO 95]
> 1000 nM | SRAHQHSMETRTPDINPCWYTGRGCRPVGRF-NH2 (linker 18-25 via L4; reading uncertain) [Conjugate 249]

Further lines, the binder ahead of its results:

Binder | GPR10 EC50
SRAHQHSMETRTPDINPAWCTGRGIRCVGRF-NH2 (linker 20-27 via L1; reading uncertain) [Conjugate 232] | 130 nM
SRAHQHSMETRTPDINPAWCTGRGIRCVGRF-NH2 (cysteine pairing not given here) [SEQ ID NO 96] | 920 nM
SRAHQHSMETRTPDICPAWYTGCGIRPVGRF-NH2 (cysteine pairing not given here) [SEQ ID NO 94] | 70 nM
SRAHQHSMETRTPDCNPAWYTCRGIRPVGRF-NH2 (linker 15-22 via L5; reading uncertain) [Conjugate 244] | 230 nM
SRAHQHSMETRTPDCNPAWYTCRGIRPVGRF-NH2 (linker 15-22 via L4; reading uncertain) [Conjugate 243] | 80 nM
SRAHQHSMETRTPDICPAWYTGCGIRPVGRF-NH2 (linker 16-23 via L1; reading uncertain) [Conjugate 230] | 29 nM
SRAHQHSMETRTPDICPAWYTGCGIRPVGRF-NH2 (linker 16-23 via L4; reading uncertain) [Conjugate 246] | 360 nM
SRAHQHSMETRTPDICPAWYTGCGIRPVGRF-NH2 (linker 16-23 via L3; reading uncertain) [Conjugate 245] | 23 nM
SRAHQHSMETRTPDINPCWYTGRGCRPVGRF-NH2 (linker 18-25 via L3; reading uncertain) [Conjugate 248] | 7.5 nM
SRAHQHSMETRTPDICPAWYTGCGIRPVGRF-NH2 (linker 16-23 via L5; reading uncertain) [Conjugate 247] | 2800 nM

Molecular target: T1, GPR10
Assay: cell-based or functional assay
Remark: another data set of the same source

GPR10 EC50 | Binder
10 nM | SRAHQCS[Nle]ETRTCDINPAWYTGRGIRPVG[NMeR]F-NH2 (linker 6-13 via L3; reading uncertain) [Conjugate 258]
100 nM | SRAHQCS[Nle]ETRTCDINPAWYTGRGIRPVG[NMeR]F-NH2 (linker 6-13 via L1; reading uncertain) [Conjugate 254]
17 nM | SRAHQCS[Nle]ETRTCDINPAWYTG[hArg]GIRPVGRF-NH2 (cysteine pairing not given here) [SEQ ID NO 97]
5.1 nM | SRAHQCS[Nle]ETRTCDINPAWYTG[β3hR]GIRPVGRF-NH2 (linker 6-13 via L3; reading uncertain) [Conjugate 256]
1100 nM | SRAHQCS[Nle]ETRTCDINPAWYTGRGIRPVG[NMeR]F-NH2 (linker 6-13 via L5; reading uncertain) [Conjugate 266]
> 200 nM | SRAHQCS[Nle]ETRTCDINPAWYTGRGIRPVG[hArg]F-NH2 (cysteine pairing not given here) [SEQ ID NO 100]
81 nM | SRAHQCS[Nle]ETRTCDINPAWYTG[β3hR]GIRPVGRF-NH2 (linker 6-13 via L5; reading uncertain) [Conjugate 264]

More lines, now with the values behind:

Binder | GPR10 EC50
SRAHQCS[Nle]ETRTCDINPAWYTG[NMeR]GIRPVGRF-NH2 (linker 6-13 via L1; reading uncertain) [Conjugate 253] | 34 nM
SRAHQCS[Nle]ETRTCDINPAWYTG[β3hR]GIRPVGRF-NH2 (linker 6-13 via L1; reading uncertain) [Conjugate 252] | 16 nM
SRAHQCS[Nle]ETRTCDINPAWYTGRGIRPVG[β3hR]F-NH2 (cysteine pairing not given here) [SEQ ID NO 101] | > 200 nM
SRAHQCS[Nle]ETRTCDINPAWYTG[β3hR]GIRPVGRF-NH2 (cysteine pairing not given here) [SEQ ID NO 98] | 13 nM
SRAHQCS[Nle]ETRTCDINPAWYTG[NMeR]GIRPVGRF-NH2 (cysteine pairing not given here) [SEQ ID NO 99] | 44 nM
SRAHQCS[Nle]ETRTCDINPAWYTG[NMeR]GIRPVGRF-NH2 (linker 6-13 via L3; reading uncertain) [Conjugate 257] | 8.8 nM
SRAHQCS[Nle]ETRTCDINPAWYTGRGIRPVG[NMeR]F-NH2 (cysteine pairing not given here) [SEQ ID NO 102] | 100 nM
SRAHQCS[Nle]ETRTCDINPAWYTG[NMeR]GIRPVGRF-NH2 (linker 6-13 via L4; reading uncertain) [Conjugate 261] | 120 nM
SRAHQCS[Nle]ETRTCDINPAWYTG[β3hR]GIRPVGRF-NH2 (linker 6-13 via L4; reading uncertain) [Conjugate 260] | 60 nM
SRAHQCS[Nle]ETRTCDINPAWYTG[NMeR]GIRPVGRF-NH2 (linker 6-13 via L5; reading uncertain) [Conjugate 265] | 160 nM
SRAHQCS[Nle]ETRTCDINPAWYTGRGIRPVG[NMeR]F-NH2 (linker 6-13 via L4; reading uncertain) [Conjugate 262] | 280 nM
